According to patent US20210324075A1 (ARCH ONCOLOGY, published 2021):
Changes are numbered by the printed parent chain. Names and notes keep the numbering of the source.

T1: pig CD47 (pig, UniProt Q9GKE8 19-303)
T1 construct: whole, on cells; also called CD47 on pig RBCs
T1 sequence (looked up): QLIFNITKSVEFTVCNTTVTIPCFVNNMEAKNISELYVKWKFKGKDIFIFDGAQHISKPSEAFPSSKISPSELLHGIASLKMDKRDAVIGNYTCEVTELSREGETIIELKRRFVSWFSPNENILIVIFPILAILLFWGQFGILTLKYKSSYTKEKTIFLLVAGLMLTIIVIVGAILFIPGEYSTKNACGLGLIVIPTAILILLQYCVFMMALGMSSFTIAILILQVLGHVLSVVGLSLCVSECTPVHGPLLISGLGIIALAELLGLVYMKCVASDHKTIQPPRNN

T2: mouse CD47 (mouse, UniProt Q61735 19-303)
T2 construct: whole, on cells; also called CD47 on murine RBCs (mRBCs)
T2 sequence (looked up): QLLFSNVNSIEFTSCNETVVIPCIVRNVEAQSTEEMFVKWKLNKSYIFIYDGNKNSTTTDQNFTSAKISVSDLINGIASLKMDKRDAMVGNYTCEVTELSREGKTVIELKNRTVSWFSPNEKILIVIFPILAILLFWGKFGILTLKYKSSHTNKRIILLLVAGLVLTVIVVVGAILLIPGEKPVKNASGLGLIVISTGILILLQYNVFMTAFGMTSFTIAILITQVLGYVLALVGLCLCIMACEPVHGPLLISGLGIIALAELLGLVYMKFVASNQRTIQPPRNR

T3: rat CD47 (rat, UniProt P97829 19-303)
T3 construct: whole, on cells; also called CD47 on rat RBCs
T3 sequence (looked up): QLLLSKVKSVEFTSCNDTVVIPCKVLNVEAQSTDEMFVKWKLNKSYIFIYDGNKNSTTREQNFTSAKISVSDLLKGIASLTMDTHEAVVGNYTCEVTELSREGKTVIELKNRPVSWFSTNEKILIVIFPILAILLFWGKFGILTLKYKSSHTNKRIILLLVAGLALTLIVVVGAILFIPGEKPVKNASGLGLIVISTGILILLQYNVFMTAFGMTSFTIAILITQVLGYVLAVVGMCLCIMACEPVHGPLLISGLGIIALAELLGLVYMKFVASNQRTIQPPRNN

B1: Vx10_mh_IgG1N297Q (antibody)
heavy: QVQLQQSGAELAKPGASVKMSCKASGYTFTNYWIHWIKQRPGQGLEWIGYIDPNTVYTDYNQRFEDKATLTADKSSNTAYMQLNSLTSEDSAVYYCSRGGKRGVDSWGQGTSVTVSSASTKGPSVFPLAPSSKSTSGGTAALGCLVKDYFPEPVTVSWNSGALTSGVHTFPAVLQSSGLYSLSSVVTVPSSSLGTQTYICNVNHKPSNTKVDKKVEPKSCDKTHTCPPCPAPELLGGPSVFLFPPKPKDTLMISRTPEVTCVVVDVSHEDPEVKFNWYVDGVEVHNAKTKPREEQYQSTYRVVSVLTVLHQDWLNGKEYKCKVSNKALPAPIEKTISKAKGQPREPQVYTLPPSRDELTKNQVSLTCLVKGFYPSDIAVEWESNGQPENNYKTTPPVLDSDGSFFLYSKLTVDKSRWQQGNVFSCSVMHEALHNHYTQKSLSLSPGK
light: DVVMTQTPLSLPVSLGDQASISCRSSQSLENSNGDTYLNWYLQKPGQSPQLLIYRVSNRFSGVLDRFSGSGSGTDFTLQISRVEAEDLGVYFCLQVSHVPWTFGGGTNLEIKRTVAAPSVFIFPPSDEQLKSGTASVVCLLNNFYPREAKVQWKVDNALQSGNSQESVTEQDSKDSTYSLSSTLTLSKADYEKHKVYACEVTHQGLSSPVTKSFNRGEC
notes: Mouse-human chimeric full length IgG, human IgG1-N297Q and human kappa, made in CHO cells; also called chimeric Vx10 IgG1 N297Q
B2: Vx10_mh_IgG4PE (antibody)
heavy: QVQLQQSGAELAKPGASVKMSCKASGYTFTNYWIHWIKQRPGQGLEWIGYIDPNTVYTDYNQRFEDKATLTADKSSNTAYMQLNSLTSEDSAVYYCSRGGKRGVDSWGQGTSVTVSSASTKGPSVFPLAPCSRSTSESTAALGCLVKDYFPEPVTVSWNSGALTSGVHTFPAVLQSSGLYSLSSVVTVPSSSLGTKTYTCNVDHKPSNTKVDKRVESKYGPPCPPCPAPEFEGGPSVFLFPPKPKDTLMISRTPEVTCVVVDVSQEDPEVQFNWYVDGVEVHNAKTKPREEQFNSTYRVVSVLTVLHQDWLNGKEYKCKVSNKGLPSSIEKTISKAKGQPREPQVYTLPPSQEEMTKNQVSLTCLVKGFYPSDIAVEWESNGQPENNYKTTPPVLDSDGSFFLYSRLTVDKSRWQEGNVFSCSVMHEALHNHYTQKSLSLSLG
light: B1 light
notes: Mouse-human chimeric full length IgG, human IgG4 PE and human kappa, made in CHO cells; also called chimeric Vx10 IgG4PE
B3: Vx13 (antibody, V domains shown)
VH: EVQLQQSGPEVVKPGASVRISCKASDYTFTNYYIHWVRQRPGQGLEWIGWIYPGNNNNKYNEKFKGKATLTEDTSSSTAYMQLSSLTSEDSAVYFCARGGYTMDYWGQG
VL: DVLMTQTPLSLPVSLGDQASISCRSSQSLVHSNGNTYLHWYLQKPGQSPNLLIYKVSNRFSGVPDRFSGSGSGTDFTLKINRVETEDLGIYFCSQSTHVLTFGAG
notes: Murine mAb; also called murine anti-CD47 mAb Vx13
B4: Vx12 (antibody, V domains shown)
VH: QVQLLQSGAQLVKPGTSMKLSCKASGYTFTNYFLYWVKQRPGQGLEWIGDINPNAGSTNLNERFKSKATLTVDKSSSTAYLQLSGLTSEDSAVYYCTRGGYTMDYWGQGTSVTVSS
VL: DVVMTQIPLSLPVSLGDQASISCRSSQSLVHSNGNTYLHWYLQKPGQSPKLLIYKVSNRFSGVPDRFSGSGSGTDFTLKISRVEAEDLGVYFCSQSTHVPRTFGGGTKLEIK
notes: Murine mAb; also called murine anti-CD47 mAb Vx12
B5: Vx10 (antibody, V domains shown)
VH: QVQLQQSGAELAKPGASVKMSCKASGYTFTNYWIHWIKQRPGQGLEWIGYIDPNTVYTDYNQRFEDKATLTADKSSNTAYMQLNSLTSEDSAVYYCSRGGKRGVDSWGQGTSVTVSS
VL: DVVMTQTPLSLPVSLGDQASISCRSSQSLENSNGDTYLNWYLQKPGQSPQLLIYRVSNRFSGVLDRFSGSGSGTDFTLQISRVEAEDLGVYFCLQVSHVPWTFGGGTNLEIK
notes: Murine mAb; also called murine anti-CD47 mAb Vx10
B6: Vx11 (antibody, V domains shown)
VH: B4 VH with Q1E, L5Q
VL: B5 VL
notes: Murine mAb; also called murine anti-CD47 mAb Vx11
B7: humVx10_01_IgG4PE (antibody, V domains shown)
VH: QVQLVQSGAEVKKPGASVQVSCKASGYTFTNYWIHWLRQAPGQGLEWMGYIDPNTVYTDYNQRFEDRVTMTSDTSISTAYMELSSLRSDDTAVYYCARGGKRGVDSWGQATLVTVSS
VL: DIVMTQSPLSLPVTPGEPASISCRSSQSLENSNGDTYLNWYLQKPGQSPRLLIYRVSNRFSGVPDRFSGSGSGTDFTLKISRVEADDVGIYYCLQVSHVPWTFGQGTKLEIKR
notes: Humanized full length IgG4 PE, human kappa
B8: Vx12_mh_IgG1N297Q (antibody)
heavy: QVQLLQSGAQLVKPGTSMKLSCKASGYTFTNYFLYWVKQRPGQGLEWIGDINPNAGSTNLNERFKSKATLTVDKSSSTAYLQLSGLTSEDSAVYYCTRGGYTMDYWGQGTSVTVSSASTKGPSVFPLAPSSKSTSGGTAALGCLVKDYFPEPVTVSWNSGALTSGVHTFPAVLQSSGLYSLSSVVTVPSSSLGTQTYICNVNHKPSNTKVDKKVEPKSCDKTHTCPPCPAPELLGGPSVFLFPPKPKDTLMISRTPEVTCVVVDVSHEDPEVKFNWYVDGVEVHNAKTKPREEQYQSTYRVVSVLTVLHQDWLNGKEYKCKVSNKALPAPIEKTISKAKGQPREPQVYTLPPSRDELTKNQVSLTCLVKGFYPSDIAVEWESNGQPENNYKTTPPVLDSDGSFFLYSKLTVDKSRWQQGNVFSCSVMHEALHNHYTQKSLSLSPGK
light: DVVMTQIPLSLPVSLGDQASISCRSSQSLVHSNGNTYLHWYLQKPGQSPKLLIYKVSNRFSGVPDRFSGSGSGTDFTLKISRVEAEDLGVYFCSQSTHVPRTFGGGTKLEIKRTVAAPSVFIFPPSDEQLKSGTASVVCLLNNFYPREAKVQWKVDNALQSGNSQESVTEQDSKDSTYSLSSTLTLSKADYEKHKVYACEVTHQGLSSPVTKSFNRGEC
notes: Mouse-human chimeric full length IgG, human IgG1-N297Q and human kappa, made in CHO cells; also called chimeric Vx12 IgG1 N297Q
B9: Vx12_mh_IgG4PE (antibody)
heavy: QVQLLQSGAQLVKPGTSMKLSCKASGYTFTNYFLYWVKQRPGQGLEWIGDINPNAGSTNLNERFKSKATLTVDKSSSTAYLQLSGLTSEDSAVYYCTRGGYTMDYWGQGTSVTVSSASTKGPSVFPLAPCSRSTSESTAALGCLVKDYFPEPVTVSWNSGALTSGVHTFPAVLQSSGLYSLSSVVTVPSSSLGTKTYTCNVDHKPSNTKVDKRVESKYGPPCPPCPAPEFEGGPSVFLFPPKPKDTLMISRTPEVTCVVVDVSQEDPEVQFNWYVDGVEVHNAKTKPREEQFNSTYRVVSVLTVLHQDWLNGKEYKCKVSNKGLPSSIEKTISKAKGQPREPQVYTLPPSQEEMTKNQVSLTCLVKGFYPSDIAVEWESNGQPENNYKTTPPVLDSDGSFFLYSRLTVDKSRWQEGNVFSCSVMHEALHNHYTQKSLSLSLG
light: B8 light
notes: Mouse-human chimeric full length IgG, human IgG4 PE and human kappa, made in CHO cells; also called chimeric Vx12 IgG4PE

What was measured:
human CD47 [1] = biological target: T4, human CD47 (human, UniProt Q08722 19-292); test: flow cytometry on human RBCs, apparent affinity
T4 construct: On human RBCs, on OV10 cells transfected with human CD47 (OV10-hCD47) and on Jurkat T cells; also called hCD47; integrin-associated protein (IAP)
T4 sequence (Q08722 other isoform, or with tags, fused parts or gaps limits assumed): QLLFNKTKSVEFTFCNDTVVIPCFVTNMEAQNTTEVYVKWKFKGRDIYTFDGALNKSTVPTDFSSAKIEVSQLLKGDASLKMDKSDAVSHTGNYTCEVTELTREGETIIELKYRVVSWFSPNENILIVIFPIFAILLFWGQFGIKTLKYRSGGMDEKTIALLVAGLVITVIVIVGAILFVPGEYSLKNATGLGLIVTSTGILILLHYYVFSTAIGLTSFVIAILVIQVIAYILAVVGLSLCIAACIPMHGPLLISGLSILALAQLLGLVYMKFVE
Method: (§1) Binding activities of humanized mAbs to human CD47 on human RBCs were determined using flow cytometry. RBCs were incubated for 60 min on at 37° C. with various concentrations of the chimeric or humanized antibodies in a solution of phosphate buffered saline, pH 7.2, 2.5 mM EDT A (PBS+E). Cells were then washed with cold PBS+E and incubated for an additional hour on ice with a FITC labeled donkey-anti-human antibody (Jackson Immuno Research Labs, West Grove, Pa.) in PBS+E. Cells were washed with PBS+E, antibody binding analyzed using a C6 Accuri Flow Cytometer (Becton Dickinson) and apparent binding affinities determined by non-linear fit (Prism GraphPad software) of the median fluorescence intensities at the various antibody concentrations.

human CD47 [2] = biological target: T4, human CD47; test: cell-based ELISA on OV10-hCD47 tumor cells, apparent affinity
Method: Binding activities of humanized mAbs were determined using a cell-based ELISA assay with human OVIO-hCD47 cells expressing cell surface human CD47. OVIO hCD47 cells were grown in IMDM medium containing 10% heat inactivated fetal bovine serum (BioWest; S01520). One day before assay, 3×10⁴ cells were plated in 96 well cell bind plates (Corning #3300, VWR #66025-626) and were 95-100% confluent at the time of assay. Cells were washed, and various concentrations of purified antibodies added in IMDM 37° C. for 1 hr in 95%02 I 5% CO₂. Cells were then washed with media and incubated for an additional hour at 37° C. with HRP labeled secondary anti-human antibody (Promega) diluted 1/2500 in media. Cells were washed three times with PBS, and the peroxidase substrate 3,3′, 5,5′-tetramethylbenzidine is added (Sigma; Catalog #T4444). Reactions were terminated by the addition of HCl to 0.7N, and absorbance at 450 nm is determined using a Tecan model Infinite M200 plate reader. The apparent binding affinities of these clones to human OVIO-hCD47 cells was determined by non-linear fit (Prism GraphPad software).

dog CD47 = biological target: T5, dog CD47 (dog); test: flow cytometry on dog RBCs, apparent affinity by non-linear fit of median fluorescence
T5 construct: whole, on cells; also called CD47 on dog RBCs

human CD47 [3] = biological target: T4, human CD47; test: flow cytometry on human RBCs, apparent affinity by non-linear fit of median fluorescence
Method: (§2) Binding activities of murine mAbs to mouse CD47 on murine RBCs (mRBCs) and human CD47 on human RBCs (hRBCs) were determined using flow cytometry. RBCs were incubated for 60 min on at 37° C. with various concentrations of the chimeric or humanized antibodies in a solution of phosphate buffered saline, pH 7.2, 2.5 mM EDT A (PBS+E). Cells were then washed with cold PBS+E and incubated for an additional hour on ice with a FITC labeled goat-anti-mouse antibody (Jackson Immuno Research Labs, West Grove, Pa.) in PBS +E. Cells were washed with PBS+E, antibody binding analyzed using a C6 Accuri How Cytometer (Becton Dickinson) and apparent binding affinities determined by non-linear fit (Prism GraphPad software) of the median fluorescence intensities at the various antibody concentrations.

pig CD47 = biological target: T1, pig CD47; test: flow cytometry on pig RBCs, apparent affinity by non-linear fit of median fluorescence
mouse CD47 = biological target: T2, mouse CD47; test: flow cytometry on mouse RBCs, apparent affinity by non-linear fit of median fluorescence
Method: as §2

rat CD47 = biological target: T3, rat CD47; test: flow cytometry on rat RBCs, apparent affinity by non-linear fit of median fluorescence
human CD47 [4] = biological target: T4, human CD47; test: flow cytometry on human RBCs and cell-based ELISA on OV10-hCD47 cells
Method: as §1
Binding activities of humanized mAbs were determined using a cell-based ELISA assay with human OVIO-hCD47 cells expressing cell surface human CD47. OVIO hCD47 cells were grown in IMDM medium containing 10% heat inactivated fetal bovine serum (BioWest; S01520). […] Reactions were terminated by the addition of HCl to 0.7N, and absorbance at 450 nm is determined using a Tecan model Infinite M200 plate reader. The apparent binding affinities of these clones to human OVIO-hCD47 cells was determined by non-linear fit (Prism GraphPad software).

Binder | Kd (human CD47 [1]) [nM] | Kd (human CD47 [2]) [nM] | Kd (dog CD47) [nM] | Kd (human CD47 [3]) [nM] | Kd (pig CD47) [nM] | Kd (mouse CD47) [nM] | also measured
B1 | 0.04 | 0.087 | – | – | – | – | –
B2 | 0.048 | 0.091 | – | – | – | – | –
B3 | – | – | 1.62 | 0.874 | 0.102 | – | –
B4 | – | – | 0.101 | 0.384 | 0.06 | < 0.013 | –
B5 | – | – | 0.714 | 0.459 | 0.123 | 0.031 | Kd (rat CD47): 0.179 nM
B6 | – | – | < 0.013 | 0.091 | – | 0.246 | Kd (rat CD47): 0.231 nM
B7 | – | – | – | – | – | – | binding result (human CD47 [4]): binds
B8 | 0.09 | 0.069 | – | – | – | – | –
B9 | 0.12 | 0.07 | – | – | – | – | –
